Measured values published in publication PMC9805502.

Molecular target: HilD^Q39E,N44D,H95L mutant (recombinant) (Salmonella enterica serovar Typhimurium strain 14028s)
Test: mass photometry

HilD^Q39E,N44D,H95L mutant (recombinant) (natural protein)
stoichiometry N: 2
